Data: patent US20150291685A1 (AstraZeneca / MedImmune, published 2015)

Key:
Neat-2 subunit of IsdH [1] = molecular target: T1, Neat-2 subunit of IsdH (Staphylococcus aureus, UniProt Q2FXJ2 345-471); test: competition ELISA: haptoglobin (Hp) binding to Neat-2 of IsdH with rising antibody concentration
T1 construct: domain: Neat-2; also called subunit Neat-2
T1 sequence (looked up): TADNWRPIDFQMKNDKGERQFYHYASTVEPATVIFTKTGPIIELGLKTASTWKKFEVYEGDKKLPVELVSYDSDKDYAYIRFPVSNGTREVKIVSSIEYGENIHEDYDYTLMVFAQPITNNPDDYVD

[2] = molecular target: T2, S. aureus Iron regulated surface determinant H (IsdH) (Staphylococcus aureus, UniProt Q2FXJ2 41-864, limits assumed); test: hu_IgGFc capture assay, mean of three experiments
T2 sequence (looked up): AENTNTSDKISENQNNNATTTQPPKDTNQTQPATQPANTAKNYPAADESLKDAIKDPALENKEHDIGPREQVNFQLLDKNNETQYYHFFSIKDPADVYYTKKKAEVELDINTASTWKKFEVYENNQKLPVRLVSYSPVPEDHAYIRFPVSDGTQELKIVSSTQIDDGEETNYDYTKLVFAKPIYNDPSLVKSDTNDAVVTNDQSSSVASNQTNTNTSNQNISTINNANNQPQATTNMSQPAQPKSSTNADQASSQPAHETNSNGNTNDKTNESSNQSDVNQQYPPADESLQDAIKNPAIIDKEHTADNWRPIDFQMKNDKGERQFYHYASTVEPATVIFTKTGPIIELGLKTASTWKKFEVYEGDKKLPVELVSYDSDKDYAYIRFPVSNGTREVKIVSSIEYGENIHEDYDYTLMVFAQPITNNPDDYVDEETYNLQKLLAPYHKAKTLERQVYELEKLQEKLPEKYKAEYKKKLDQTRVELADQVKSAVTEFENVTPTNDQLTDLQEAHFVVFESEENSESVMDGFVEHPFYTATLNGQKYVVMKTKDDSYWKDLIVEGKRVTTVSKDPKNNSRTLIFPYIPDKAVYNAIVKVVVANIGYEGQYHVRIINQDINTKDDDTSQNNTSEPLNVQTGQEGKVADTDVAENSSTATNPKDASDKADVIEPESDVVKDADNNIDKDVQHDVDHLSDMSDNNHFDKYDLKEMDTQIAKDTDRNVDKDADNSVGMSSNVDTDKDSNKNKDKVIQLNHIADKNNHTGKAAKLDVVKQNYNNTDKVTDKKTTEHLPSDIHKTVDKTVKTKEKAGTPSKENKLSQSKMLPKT

Neat-2 subunit of IsdH [3] = molecular target: T1, Neat-2 subunit of IsdH; test: hu_IgGFc capture assay, mean of three experiments
[4] = molecular target: T3, S. aureus clumping factor protein ClfA (Staphylococcus aureus, UniProt Q2G015 221-559, limits assumed); test: inhibition of ClfA binding to immobilized fibrinogen; the curve reaches about 60-65 % inhibition [table]
T3 sequence (looked up): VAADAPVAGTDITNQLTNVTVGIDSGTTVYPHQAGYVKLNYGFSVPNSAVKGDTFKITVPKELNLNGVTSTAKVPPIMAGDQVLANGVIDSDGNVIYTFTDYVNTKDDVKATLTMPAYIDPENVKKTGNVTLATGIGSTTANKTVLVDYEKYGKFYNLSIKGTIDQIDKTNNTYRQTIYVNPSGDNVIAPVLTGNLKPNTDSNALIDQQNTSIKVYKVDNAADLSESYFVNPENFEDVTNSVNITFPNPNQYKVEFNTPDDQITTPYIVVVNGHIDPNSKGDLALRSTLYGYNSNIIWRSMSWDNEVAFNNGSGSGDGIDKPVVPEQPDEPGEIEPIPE

[5] = molecular target: T3, S. aureus clumping factor protein ClfA; test: inhibition of ClfA binding to immobilized fibrinogen; the curve reaches about 55-62 % inhibition [table]
Neat-1 = molecular target: T4, Neat-1 (Staphylococcus aureus); test: competition ELISA: haptoglobin (Hp) binding to Neat-1 of IsdH with rising antibody concentration
T4 construct: domain of IsdH; also called subunit Neat-1 on IsdH; NEAT1 motif of IsdH

B1: mAb 2F4 (antibody, V domains shown)
VH: EVQLLESGGGLVQPGGSLRLSCAASGFTFSPYMMQWVRQAPGKGLEWVSSIWPSGGKTYYADSVKGRFTISRDNSKNTLYLQMNSLRAEDTAVYYCARVRRGGATDYWGQGTLVTVSS
VL: DIQMTQSPATLSVSPGERATLSCRASQSVSSNLGWYQQKPGQAPRLLIYGASTRATGIPTRFSGSGSGTEFTLTISSLQSEDFATYYCQQYQNWPLLTFGGGTKVEIK
notes: also called antibody 2F4; anti-IsdH mAb 2F4
Neat-2 subunit of IsdH [1]
  IC50 (read off the curve): ~1 µg/mL
[2]
  Kd: 3.66 nM
Neat-2 subunit of IsdH [3]
  Kd: 2.57 nM

B2: mAb 23D6 (antibody, V domains shown)
VH: QVQLVESGGGVVQPGRSLRLSCAASVFTFSSYGMHWVRQAPGKGLEWVALIWFDGSNEYYADSVKGRFTISRDNSKNTLYLQMNSLRAEDTAVYYCARDRGGGYYYYGMDVWGQGTTVTVSS
VL: DIQMTQSPSSLSASVGDRVTITCRASQGIRNDLGWYQQKPGKAPKRLIYAASSLQSGVPSRFSGSGSGTEFTLTISSLQPEDFATYYCLQHNSYPYTFGQGTKLEIK
notes: also called anti-ClfA antibody 23D6
[4]
  IC50: 1.92 µg/mL

B3: anti-ClfA mAb 11H10 (antibody, V domains shown)
VH: EVQLLESGGGLVQPGGSLRLSCAASGFTFSSFAMSWVRQAPGKGLEWVSAISGSGGNTYYADSVKGRFTISRDNSKNTLYLQMNSLRAEDTAVYYCAKIAFDIWGQGTMVTVSS
VL: DIQMTQSPSSLSASVGDRVTITCRASQGIRNDLGWYQQKPGKAPKRLIYVASSLQSGVPSRFSGSGSGTEFTLTISSLQPEDFATYYCLQHNSYPFTFGPGTKVDIK
[5]
  IC50: 0.871 µg/mL

B4: mAb 1C1 (antibody, V domains shown)
VH: EVQLLESGGGLVQPGGSLRLSCAASGFTFSRYFMGWVRQAPGKGLEWVSSIYSSGGYTSYADSVKGRFTISRDNSKNTLYLQMNSLRAEDTAVYYCARRWRDGTFDYWGQGTLVTVSS
VL: DIQMTQSPSSLSASIGDRVTISCRASQSVREYLNWYQQKPGKAPKLLIFAASSLQSGVPSRFSGSGSGTDFTLTISSLQPEDFATYYCQQSYSTRFTFGPGTKVDIK
notes: also called antibody 1C1
Neat-1
  IC50 (read off the curve): ~3 µg/mL
